According to the nanobody polyreactivity screen of Harvey et al. (2022):

Assay: yeast display, Sf9 membrane polyspecificity reagent, FACS + sequencing; frameworks hold sequencing errors
How it was run: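 In a synthetic yeast display library (Saccharomyces cerevisiae BJ5465), nanobody expression was induced with galactose for 36–48 hours. FACS gates were set low and high (top ~1%) using anti-HA fluorescence for expression and streptavidin fluorescence for binding of the Sf9 membrane reagent. Each polyreactivity label is drawn from the gate of origin.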

| Sequence | polyreactivity (PSR sort gate) |
| --- | --- |
| QVQLVESGGGLVQAGGSLRLSCDASGSIFGSYAMGWYRQAPGKEWELVAAISRRGGSTYYADSVKGRFTISRDNAKNTVYLQMNSLKAEDTAVYYCARRDYGVLNKGLGQEGDYWGQGTQVTVSS | low polyreactivity |
| QVQLVESGGGLVQAGGSLRLSCDASGSIFNYYAMGWYRQAPGKERELVATITRGGSTYYADSVKGRFTISRDNAKNTVYLQMNILKPEDTAVYYCAKVGRSTAYQNGYDYWGQGTQVTVSS | low polyreactivity |
| QVQLVESGGGLVQAGGSLRLSCDASGSIFQRYAMGWYRPAPGKERELVAGINWSGGRTYYADSVKGRFTISRDNAKNTVYLQMISLKPEDTAVYYCAAARYTRYDYWGQGTQVTVSS | high polyreactivity |
| QVQLVESGGGLVQAGGSLRLSCDASGSIFRGYAMGWYRQAPGKEREFVAAISKRSGSTYYADSVKGRFTISRDNAKNSVYLQMNSLKPEDTAVYYCAKERVAAAGGYWGQGTQVTVSS | high polyreactivity |
| QVQLVESGGGLVQAGGSLRLSCDASGSILWLNAMGWYRQAPGKERELVADITRGGSTYYADSVKGRFTISRDNAKNTVYLQMNSLKPEDTAVYYCAARLYGGYDWGQGTQVTVSS | high polyreactivity |
| QVQLVESGGGLVQAGGSLRLSCDASGSPFEWYGMGWYRQAPGKERELVDAITSGGSTNYADSVKGRFTISRDNAKNTVYLQMNCLKPEVPAVYYCNAEYKPYHYYKAWVYTYDYGYWGQGTQVTVSS | low polyreactivity |
| QVQLVESGGGLVQAGGSLRLSCDASGSTFNKYAMGWYRQAPGKERELVAAITTSGGRTTYADSVKGRFTISRDNAKNTVYVQMNSLKPEDTEVYYCAARYYIHRGYDYDYWGQGTQVSVSS | high polyreactivity |
| QVQLVESGGGLVQAGGSLRLSCDASGSTFTFNDMGWYRQAPGKERELVAAITSGGSTTYADSVKGRFTISRDNAKNTVYLQMNSLKPEDTAVYYCAADYVYFYFYGYDSWGQGTQVTVSS | low polyreactivity |
| QVQLVESGGGLVQAGGSLRLSCDASGSTFYSYTMGWSRQAPGKERELVATISWSGSSTYDADSVKGRFTISRDNAKNTVYLQMNSLTPEDTAVYYSAAVHYDKSAYWWWYNYWGQGTLVTVSS | low polyreactivity |
| QVQLVESGGGLVQAGGSLRLSCDASGSTIIRNAMGWSRQAPGKERELVAAISTSGGRTHYADSVKGRFTISRDNAKNTVYLKMNSLKPEDTAVYYCATRGKGHYYYWGQGTQVTVSS | high polyreactivity |
| QVQLVESGGGLVQAGGSLRLSCDASGSTSKTYAMGWYRQAPGKERELVAVISYGGTTYYADSVKGRFTISRDNAKNTVYLQLNSLKPEDTAVYYCAARAWHRRGVPHYYWGQGSQVTVSS | high polyreactivity |
| QVQLVESGGGLVQAGGSLRLSCDASGSTSSKYAMGWYRQAPGKEWQLVATISWRTGSTYYADSVKGRFTISRDNAKNTVYLEMNSLKPEETAVYYCNARVAGRRKYDYWGQGTQVTVSS | high polyreactivity |
| QVQLVESGGGLVQAGGSLRLSCDDSGFIFFDYAMGWYRQAPGKEREFVAAISTRGGSTYYADSVKGLFTISRDNAKNTVYLQMNSLKPEDTSVYYCNARTIRPWGENGYWGQGTQVSVSS | high polyreactivity |
| QVQLVESGGGLVQAGGSLRLSCGASGFISKFYAMGWYRQAPGKERELVASISRDGSTSYADSVKGRFTMSRDNAKNSVYLQMNSLKPEDTAVYYCAAPSYRTRYYYWGQGTQVTVSS | high polyreactivity |
| QVQLVESGGGLVQAGGSLRLSCGASGFTFSPYAMGWYRQAPGKERELVAVISGGGSTYYADSVKGRFTISRDNAKNTVYLQMNSLKPEDTAGYYCAKRFYRSYYWGQGTQVTVSS | high polyreactivity |
| QVQLVESGGGLVQAGGSLRLSCGASGIIFFNNVMGWYRHAPGKERELVAAITFSGSSTYYADSVKGRFTISRDNAKNTVYLQMNSMKPEDTAVYYCAAKYYGVLYTVPGDDYWGQGTLVTVSS | low polyreactivity |
| QVQLVESGGGLVQAGGSLRLSCGASGNIFTRNAMGWSRQAPGKERECVAAITESGASTYYADSVKGRFTISRDNAKNTVYLQMNSLKPEDTAVYYCNARLSRWRRRPYDYWGQGTQVTVSS | high polyreactivity |
